Measured values reported in PMC4687910, “Thermostabilization of the Human Serotonin Transporter in an Antidepressant-Bound Conformation” (PLoS ONE, 2015).

Test system: T1, NCCc1c[nH]c2ccc(O)cc12
T1 construct: wild-type hSERT expressed in HEK293S cells
Experiment: cells, lysate or membranes
Assay type: cell-based, Homo sapiens
Conditions: Na+ and Cl-

human serotonin transporter (hSERT) (Homo sapiens)
Km: 3.4 µM
